Columns and labels:
[1] = target: the molecule itself; assay: SEC-MALS; purified proteins and preformed complexes, Superdex-200 10/300, 2 mg/ml, 15 mM TrisHCl, 150 mM NaCl, pH 7.4
Lip-DVL2-PDZ = target: T1, Lip-DVL2-PDZ (human, UniProt O14641 285-373); assay: ITC; MicroCal iTC200, 15 mM Tris-HCl, 150 mM NaCl, pH 7.4; Lip-DVL2-PDZ or Lip-DVL2-PDZ-V334E (696 μM) injected into 17.2 μM RFP-NKD-EF; conditions: both partners purified
T1 construct: PDZ domain of human DVL2, residues 285-373; also called DVL2 PDZ domain; wt DVL2 PDZ domain; source: E. coli BL21DE3 pRare2, purified (NiNTA, SEC)
T1 sequence (looked up): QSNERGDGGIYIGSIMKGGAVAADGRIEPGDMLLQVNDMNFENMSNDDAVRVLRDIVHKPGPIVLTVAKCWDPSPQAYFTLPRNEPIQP

- Kd (Lip-DVL2-PDZ): 3.2 ± 0.2 µM
B1: RFP-NKD1-EF (domain or fragment, human, UniProt Q969G9 110-190, looked up)
chain: EPCPGSKKQLKFEELQCDVSMEEDSRQEWTFTLYDFDNNGKVTREDITSLLHTIYEVVDSSVNHSPTSSKMLRVKLTVAPD
notes: EF-hand of human NKD1, residues 110-190; Dimer by SEC-MALS (expected RFP-NKD1-EF dimer, 71.8 kDa); also called RFP-NKD-EF; NKD1 EF-hand; source: E. coli BL21DE3 pRare2, purified (NiNTA, SEC)
- stoichiometry N [1]: 2
